Source: PMC7718258

Target: Methanocaldococcus jannaschii Bud32 (Methanocaldococcus jannaschii) (UniProt Q58530)
Sequence (Q58530 whole entry): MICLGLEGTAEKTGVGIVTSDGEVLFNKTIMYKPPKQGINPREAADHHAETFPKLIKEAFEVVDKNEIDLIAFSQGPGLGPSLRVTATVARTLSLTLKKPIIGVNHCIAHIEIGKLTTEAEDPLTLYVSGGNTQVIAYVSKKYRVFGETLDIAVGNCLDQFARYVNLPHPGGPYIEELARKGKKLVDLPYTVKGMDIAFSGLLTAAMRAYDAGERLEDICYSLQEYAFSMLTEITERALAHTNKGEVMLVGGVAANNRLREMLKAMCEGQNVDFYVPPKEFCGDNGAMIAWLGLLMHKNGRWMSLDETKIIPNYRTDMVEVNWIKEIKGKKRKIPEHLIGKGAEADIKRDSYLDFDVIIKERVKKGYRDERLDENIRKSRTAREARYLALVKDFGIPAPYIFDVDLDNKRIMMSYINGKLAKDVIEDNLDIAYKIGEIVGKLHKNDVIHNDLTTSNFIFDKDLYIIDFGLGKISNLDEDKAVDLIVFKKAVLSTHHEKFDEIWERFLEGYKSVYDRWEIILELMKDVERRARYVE

B1: Methanocaldococcus jannaschii Cgi121 (natural protein)
chain: MIIRGIRGARINNEIFNLGLKFQILNADVVATKKHVLHAINQAKTKKPIAKSFWMEILVRASGQRQIHEAIKIIGAKDGNVCLICEDEETFRKIYELIGGEIDDSVLEINEDKERLIREIFKIRGFGNVVERVLEKIALIELKKE
B1 was tested, and the ATPase activity of mjBud32 (ADP Glo assay), potentiation by mjCgi121 was 10 fold.
